Measured values from US20170355757A1 (Regeneron, published 2017).

Tests used:
human C5 R885C-mmh [1] = target: T1, human C5 R885C-mmh (human, UniProt P01031 19-1676); experiment: SPR, mAb captured via anti-hFc, 37C
T1 construct: also called human C5 variant R885C
How it was run: (§1)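 Antibodies captured on anti-human Fc surface in HBST (HEPES pH 7.4, 3 mM EDTA); C5 reagents (commercial human C5 or myc-myc-His-tagged variants) associated 3 min, dissociated 8 min, at 25 °C or 37 °C. Sensorgrams fitted 1:1; KD = kd/ka, t½ = ln2/(60×kd).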

monkey C5-mmh = target: T2, monkey C5-mmh (monkey, UniProt P01031 19-1676 (human entry), limits assumed); experiment: SPR, mAb captured via anti-hFc, 37C
T2 construct: Recombinant monkey C5 with a C-terminal myc-myc-hexahistidine tag
T2 chain: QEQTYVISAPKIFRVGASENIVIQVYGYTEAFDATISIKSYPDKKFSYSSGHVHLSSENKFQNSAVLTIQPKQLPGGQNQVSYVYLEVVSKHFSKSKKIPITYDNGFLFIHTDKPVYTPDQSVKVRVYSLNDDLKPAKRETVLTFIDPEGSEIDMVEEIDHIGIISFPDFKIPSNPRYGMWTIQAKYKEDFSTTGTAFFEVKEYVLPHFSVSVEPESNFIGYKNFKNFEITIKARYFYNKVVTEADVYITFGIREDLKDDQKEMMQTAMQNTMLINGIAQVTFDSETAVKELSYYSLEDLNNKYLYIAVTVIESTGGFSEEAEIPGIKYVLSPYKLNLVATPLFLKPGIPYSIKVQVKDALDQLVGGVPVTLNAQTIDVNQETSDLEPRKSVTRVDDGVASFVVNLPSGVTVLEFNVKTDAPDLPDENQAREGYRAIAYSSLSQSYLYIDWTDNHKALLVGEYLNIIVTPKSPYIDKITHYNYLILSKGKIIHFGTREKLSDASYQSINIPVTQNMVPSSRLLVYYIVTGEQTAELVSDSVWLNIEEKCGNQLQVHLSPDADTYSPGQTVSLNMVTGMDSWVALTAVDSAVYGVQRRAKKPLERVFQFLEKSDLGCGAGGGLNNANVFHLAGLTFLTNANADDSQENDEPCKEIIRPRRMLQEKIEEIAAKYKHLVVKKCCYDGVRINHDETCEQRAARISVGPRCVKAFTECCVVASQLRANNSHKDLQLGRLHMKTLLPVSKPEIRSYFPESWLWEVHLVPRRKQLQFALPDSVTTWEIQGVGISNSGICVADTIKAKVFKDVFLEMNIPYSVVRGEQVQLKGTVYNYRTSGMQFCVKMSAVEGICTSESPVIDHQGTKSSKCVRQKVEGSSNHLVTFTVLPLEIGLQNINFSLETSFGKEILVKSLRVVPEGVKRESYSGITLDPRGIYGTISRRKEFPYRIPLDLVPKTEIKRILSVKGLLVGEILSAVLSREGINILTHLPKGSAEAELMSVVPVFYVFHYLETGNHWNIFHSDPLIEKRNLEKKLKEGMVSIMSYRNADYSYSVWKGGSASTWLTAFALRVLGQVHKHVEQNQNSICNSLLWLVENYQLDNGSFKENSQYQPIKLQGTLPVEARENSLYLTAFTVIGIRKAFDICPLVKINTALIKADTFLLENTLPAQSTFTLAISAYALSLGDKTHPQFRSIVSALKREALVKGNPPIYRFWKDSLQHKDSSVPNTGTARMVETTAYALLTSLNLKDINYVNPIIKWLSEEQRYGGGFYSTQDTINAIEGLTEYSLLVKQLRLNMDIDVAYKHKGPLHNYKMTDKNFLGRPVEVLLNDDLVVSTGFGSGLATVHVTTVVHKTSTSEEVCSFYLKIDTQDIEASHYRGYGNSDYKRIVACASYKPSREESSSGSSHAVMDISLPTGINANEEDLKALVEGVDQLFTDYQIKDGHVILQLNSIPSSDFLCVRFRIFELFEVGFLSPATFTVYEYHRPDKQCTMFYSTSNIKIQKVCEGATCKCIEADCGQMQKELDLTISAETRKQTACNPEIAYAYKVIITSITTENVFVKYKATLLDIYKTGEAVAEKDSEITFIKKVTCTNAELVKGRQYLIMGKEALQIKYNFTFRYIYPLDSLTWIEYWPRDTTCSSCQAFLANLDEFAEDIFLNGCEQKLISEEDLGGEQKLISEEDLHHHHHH
How it was run: as §1

human C5 R885H-mmh [2] = target: T3, human C5 R885H-mmh (human, UniProt P01031 19-1676); experiment: SPR, mAb captured via anti-hFc, 37C
T3 construct: also called human C5 variant R885H
How it was run: as §1

human C5 R885C-mmh [3] = target: T1, human C5 R885C-mmh; experiment: SPR, mAb captured via anti-hFc, 25C
How it was run: as §1

human C5 R885H-mmh [4] = target: T3, human C5 R885H-mmh; experiment: SPR, mAb captured via anti-hFc, 25C
How it was run: as §1

human C5 = target: T4, human C5 (human, UniProt P01031 19-1676); experiment: SPR, mAb captured via anti-hFc, dissociation at pH7.4 vs pH6.0, 25C
T4 construct: Bought human C5 (EMD #204888, said elsewhere to be purified from plasma); also called hC5; complement component 5
Experimental: Effect of pH on the rate of dissociation of recombinant human C5 bound to purified anti-C5 monoclonal antibodies was determined using a real-time surface plasmon resonance biosensor using a Biacore T200 instrument. The Biacore sensor surface was first derivatized by amine coupling with a monoclonal mouse anti-human Fc antibody (GE, # BR-1008-39) to capture anti-C5 monoclonal antibodies expressed with human IgG4 Fc. All Biacore binding studies were performed using two running buffers PBS-T, pH7.4 (0.01M Na₂HPO₄/NaH₂PO₄, 0.15M NaCl, 0.05% v/v Tween-20, adjusted to pH7.4) and PBS-T, pH6.0 (0.01M Na₂HPO₄/NaH₂PO₄, 0.15M NaCl, 0.05% v/v Tween-20, adjusted to pH6.0). […] Binding dissociative half-lives (t %) were calculated from kd as: […]

Binder	100 nM Human C5 R885C-mmh Bound (RU) (human C5 R885C-mmh [1])	Kd (human C5 R885C-mmh [1]) [nM]	koff (human C5 R885C-mmh [1]) [s⁻¹]	kon (human C5 R885C-mmh [1]) [M⁻¹ s⁻¹]	t1/2 (human C5 R885C-mmh [1]) [min]	100 nM monkey C5-mmh Bound (RU) (monkey C5-mmh)	Kd (monkey C5-mmh) [nM]	koff (monkey C5-mmh) [s⁻¹]	kon (monkey C5-mmh) [M⁻¹ s⁻¹]	t1/2 (monkey C5-mmh) [min]	100 nM Human C5 R885H-mmh Bound (RU) (human C5 R885H-mmh [2])	Kd (human C5 R885H-mmh [2]) [nM]	koff (human C5 R885H-mmh [2]) [s⁻¹]	kon (human C5 R885H-mmh [2]) [M⁻¹ s⁻¹]	t1/2 (human C5 R885H-mmh [2]) [min]	100 nM Human C5 R885C-mmh Bound (RU) (human C5 R885C-mmh [3])	Kd (human C5 R885C-mmh [3]) [nM]	koff (human C5 R885C-mmh [3]) [s⁻¹]	kon (human C5 R885C-mmh [3]) [M⁻¹ s⁻¹]	t1/2 (human C5 R885C-mmh [3]) [min]	other results
H4H12164P (antibody, human IgG4, V domains shown, Human IgG4 Fc with S108P hinge mutation (H4H)) VH: EVQLVESGGGLVRSGGSLRLSCAASGFTFNRYAMTWVRQAPGKGLEWVSAISGSGSSTYYTDSVKGRFTISRDNSKNSVDLQMHSLRVEDTAIYYCARGTTVTTGYGMDVWGQGTTVTVSS VL: DIQMTQSPSSLSASVGDRVTFTCQASQDITNSLNWYQQKPGRAPKLLIYDASYLKAGVPSRFSGSGSGTDFTFTISSLQPEDIATYYCQQYDDLPYTFGQGTKLEIK	64	5.85	0.00104	177000	11	99	6.3	0.00117	186000	10	68	5.46	0.00106	195000	11	249	1.19	0.000182	153000	63	100 nM Human C5 R885H-mmh Bound (RU) (human C5 R885H-mmh [4]): 295 RU; Kd (human C5 R885H-mmh [4]): 1.19 nM; koff (human C5 R885H-mmh [4]): 0.000187 s⁻¹; kon (human C5 R885H-mmh [4]): 158000 M⁻¹ s⁻¹; t1/2 (human C5 R885H-mmh [4]): 62 min; t1/2 Ratio pH7.4/pH6.0 (human C5): 0.3
H4H12167P (antibody, human IgG4, V domains shown, Human IgG4 Fc with S108P hinge mutation (H4H)) VH: QVQLVESGGGLVKPGGSLRLSCAASGFTFSDSYMSWIRQAPGKGLEWISYIGSSGNTFYYADSVKGRFTISRDNANNLLYLQMTSLRAEDTAVYYCAREEGDFWSAVDSWGQGTLVTVSS VL: DIQLTQSPSFLSASVGDRVTITCWASQGISSYLAWYQQKPGKAPKLLIHTASTLQSGVPSRFSGSGSGTEFTLTISNLQPEDFATYYCQQLNSYPFTFGPGTKVDIK	64	3.64	0.00249	684000	5	146	0.539	0.000289	537000	40	65	2.91	0.00257	881000	5	163	0.413	0.000294	711000	39	100 nM Human C5 R885H-mmh Bound (RU) (human C5 R885H-mmh [4]): 187 RU; Kd (human C5 R885H-mmh [4]): 0.433 nM; koff (human C5 R885H-mmh [4]): 0.000298 s⁻¹; kon (human C5 R885H-mmh [4]): 689000 M⁻¹ s⁻¹; t1/2 (human C5 R885H-mmh [4]): 39 min; t1/2 Ratio pH7.4/pH6.0 (human C5): 0.6
H4H12159P (antibody, human IgG4, V domains shown, Human IgG4 Fc with S108P hinge mutation (H4H)) VH: QVQLVESGGGVVQPGRSLRLSCGASGFTFSTYGMHWVRQAPGKGLEWVAVIWDDGNNKYYADSVKGRFTISRDNSKNTLYLQMNSLRAEDTAVYYCARDSEVAPVGDYWGQGTLVTVSS VL: DIQMTQSPSTLSASVGDRVTIICRASQSINRWLAWYQQKPGKAPKLLIYKASSLESGVPSRFSGSGSGTEFTLTISSLQPDDFAAYYCQQYNDYSYTFGQGTKLEIK	68	1.74	0.000975	561000	12	137	0.133	5.5e-05	412000	210	82	1.49	0.000948	638000	12	168	0.289	0.000169	586000	68	100 nM Human C5 R885H-mmh Bound (RU) (human C5 R885H-mmh [4]): 177 RU; Kd (human C5 R885H-mmh [4]): 0.25 nM; koff (human C5 R885H-mmh [4]): 0.000176 s⁻¹; kon (human C5 R885H-mmh [4]): 706000 M⁻¹ s⁻¹; t1/2 (human C5 R885H-mmh [4]): 66 min; t1/2 Ratio pH7.4/pH6.0 (human C5): ≤ 0.3
H4H12175P (antibody, human IgG4, V domains shown, Human IgG4 Fc with S108P hinge mutation (H4H)) VH: EVQLVESGGGVVQPGGSLRLSCAASGFTFNDYAMHWVRQAPGKGLEWVSLISGDGGNTYYADSVKGRLTISRDNSKNSLYLQMNSLRTEDTALYYCAKDKGWNFGYFDLWGRGTLVTVSS VL: DIQMTQSPSSLSTSVGDRVTITCRASQNIDTYLNWYQQKPGKAPKLLIYDASSLQSGVPSRFSGSGSGTDFTLTITSLQPEDFATYYCQQNDNILHPLTFGGGTKVEIK	4	159	0.0179	112000	1	74	15.6	0.00276	177000	4	30	69.4	0.0095	137000	1	128	190	0.0155	81800	1	100 nM Human C5 R885H-mmh Bound (RU) (human C5 R885H-mmh [4]): 207 RU; Kd (human C5 R885H-mmh [4]): 10.9 nM; koff (human C5 R885H-mmh [4]): 0.00198 s⁻¹; kon (human C5 R885H-mmh [4]): 181000 M⁻¹ s⁻¹; t1/2 (human C5 R885H-mmh [4]): 6 min; t1/2 Ratio pH7.4/pH6.0 (human C5): 0.9
H4H12168P (antibody, human IgG4, V domains shown, Human IgG4 Fc with S108P hinge mutation (H4H)) VH: QVQLVESGGGVVQPGGSLRLSCAASGFTFGGHAMHWVRQAPGKGLEWLAVISSDGSNKQYADSVKGRFTISRDNPKNTLYLQMNSLRVGDTAIYYCAKEVAPRYYYYGLDVWGQGTTVTVSS VL: DIQMTQSPSSLSASVGDRVTITCRASQDISNFLAWYQQKPGKVPKLLIYTASTLQSGVPSRFSGSGSGTDFTLTVSSLQPEDVATYYCQKYAGALTFGPGTKVDIK	21	8.9	0.000569	63800	20	29	12.7	0.000676	53300	17	29	50.4	0.00123	24300	9	144	3.27	0.000199	60900	58	100 nM Human C5 R885H-mmh Bound (RU) (human C5 R885H-mmh [4]): 197 RU; Kd (human C5 R885H-mmh [4]): 4.05 nM; koff (human C5 R885H-mmh [4]): 0.000214 s⁻¹; kon (human C5 R885H-mmh [4]): 52900 M⁻¹ s⁻¹; t1/2 (human C5 R885H-mmh [4]): 54 min; t1/2 Ratio pH7.4/pH6.0 (human C5): 1.5
